Positions count from the first letter of the chain named.
T1: Human GDF15 native: naturally produced human GDF15 purchased from Peprotech (human, UniProt Q99988 195-308)
T1 construct: Bought protein
T1 sequence: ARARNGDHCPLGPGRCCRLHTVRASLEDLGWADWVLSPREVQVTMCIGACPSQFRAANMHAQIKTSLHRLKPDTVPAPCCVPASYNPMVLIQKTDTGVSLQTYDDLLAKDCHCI

T2: GDF15 mutant S231R (knuckle region), albumin fusion (human, UniProt Q99988 195-308)
T2 construct: not shown: albumin fusion partner
T2 chain: T1 sequence with S37R

T3: human GDF15 (target of the SET measurements; form not stated) (human, UniProt Q99988 195-308, limits assumed)
T3 sequence: T1 sequence

T4: GDF15 mutant W228R (wrist region), albumin fusion (human, UniProt Q99988 195-308)
T4 construct: not shown: albumin fusion partner
T4 chain: T1 sequence with W34R

T5: GDF15 mutant D289R (finger tip region), albumin fusion (human, UniProt Q99988 195-308)
T5 construct: not shown: albumin fusion partner
T5 chain: T1 sequence with D95R

T6: GDF15 mutant M253R (wrist region), albumin fusion (human, UniProt Q99988 195-308)
T6 construct: not shown: albumin fusion partner
T6 chain: T1 sequence with M59R

T7: GDF15 mutant S278R (back-of-hand), albumin fusion (human, UniProt Q99988 195-308)
T7 construct: not shown: albumin fusion partner
T7 chain: T1 sequence with S84R

T8: GDF15 mutant Q247R (wrist region), albumin fusion (human, UniProt Q99988 195-308)
T8 construct: not shown: albumin fusion partner
T8 chain: T1 sequence with Q53R

T9: GDF15 mutant L294R (knuckle region), albumin fusion (human, UniProt Q99988 195-308)
T9 construct: not shown: albumin fusion partner
T9 chain: T1 sequence with L100R

T10: GDF15 mutant I285R (knuckle region), albumin fusion (human, UniProt Q99988 195-308)
T10 construct: not shown: albumin fusion partner
T10 chain: T1 sequence with I91R

T11: Cyno His-GDF15: HIS-tagged cyno GDF15 (cynomolgus, UniProt G7PWZ3 197-308, limits assumed)
T11 construct: not shown: His tag
T11 sequence (looked up): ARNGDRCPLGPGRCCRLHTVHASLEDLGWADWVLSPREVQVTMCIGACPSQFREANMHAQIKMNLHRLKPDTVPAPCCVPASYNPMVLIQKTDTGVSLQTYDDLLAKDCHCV

T12: Rat GDF15 HIS: HIS-tagged rat GDF15 (rat, UniProt Q9Z0J6 189-303, limits assumed)
T12 construct: also called Rat His-GDF15; not shown: His tag
T12 sequence (looked up): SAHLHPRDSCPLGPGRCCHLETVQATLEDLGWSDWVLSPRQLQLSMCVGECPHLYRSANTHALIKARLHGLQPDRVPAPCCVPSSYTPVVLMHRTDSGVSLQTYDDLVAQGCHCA

T13: Human His-GDF15: HIS-tagged human GDF15 (human, UniProt Q99988 195-308)
T13 construct: not shown: His tag
T13 sequence: T1 sequence

T14: Mouse His-GDF15: HIS-tagged mouse GDF15 (mouse, UniProt Q9Z0J7 189-303)
T14 construct: not shown: His tag
T14 sequence (looked up): T12 sequence (looked up) with L4A, L63Q, R75K, Q110R

B1: ABGDF15-G (antibody, human IgG1, kappa, V domains shown)
VH: QVQLVQSGAEVKKPGSSVKVSCKASGGTFSSHYINWVRQAPGQGLEWMGGIIPAFGGANYAQKFQGRVTITADESTSTAYMELSSLRSEDTAVYYCARFGSVYVSRYSSYYHMDVWGQGTLVTVSS
VL: DIQMTQSPSSLSASVGDRVTITCRASQTIYRSLAWYQQKPGKAPKLLIYGASILQSGVPSRFSGSGSGTDFTLTISSLQPEDFATYYCLQRYTSPFTFGQGTKVEIKR
notes: captured through anti-human Fc in the Biacore assay
B2: ABGDF15-A (antibody, human IgG1, kappa, V domains shown)
VH: EVQLVQSGAEVKKPGESLKISCKGSGYSFTDYWISWVRQMPGKGLEWMGIIDPSGSYTIYSPSFQGQVTISADKSISTAYLQWSSLKASDTAMYYCARVSYYGGYFDIWGQGTLVTVSS
VL: DIQMTQSPSSLSASVGDRVTITCRASQSISNNLNWYQQKPGKAPKLLIYAASNLQSGVPSRFSGSGSGTDFTLTISSLQPEDFATYYCFQLDHSPFTFGQGTKVEIKR
notes: as for B1

Key:
[1] = target: T1, Human GDF15 native: naturally produced …; test: Biacore SPR (rounded from Table 2, human GDF15 native)
Protocol: (§1) Anti-human Fc capture antibody was immobilized at 0.5 μg/ml on CMS chip in all four flow cells to achieve 8000 to 12,000 resonance units (RU) on the surface. Anti-hGDF15 antibodies were captured at flow rate […], at 0.25 to 0.5 μg/ml on the chip to get about 30 RU in flow cells 2, 3 and 4. GDF15 ligand was flowed at […] over captured antibodies and reference flow cell 1 for 600 and 1200 seconds contact time. Eight doses serially diluted 1 to 2, ranging from 20 to 0.156 nM, were tested. All cycles were repeated twice, regenerated between cycles with 3M MgCl₂ at flow […], 20 seconds contact time. Data were normalized by subtracting reference flow cell results. Data were fit with 1:1 Kinetics model with RI (bulk refractive index) set constant at 0.

[2] = target: T2, GDF15 mutant S231R (knuckle region), …; test: direct ELISA: albumin fusion GDF15 mutant coated on the plate, serially diluted antibody, anti-human IgG-HRP detection
Protocol: (§2) Antibody epitope was determined by a direct ELISA method with GDF15 mutants. Albumin fusion GDF15 mutants were coated in wells of a 96-well EIA plate. After blocking, serially diluted anti-hGDF15 human antibodies were added to the GDF15-coated wells, followed by incubation at an ambient temperature for a few hours. Antibody binding was detected using an anti-human IgG antibody conjugated with horseradish peroxidase (HRP) and HRP substrate.

[3] = target: T3, human GDF15 (target of the SET …); test: solution equilibrium titration (SET); SET, not Biacore
[4] = target: T4, GDF15 mutant W228R (wrist region), …; test: direct ELISA on coated albumin-fusion GDF15 variant
Protocol: as §2

[5] = target: T5, GDF15 mutant D289R (finger tip region), …; test: as above
Protocol: as §2

[6] = target: T6, GDF15 mutant M253R (wrist region), …; test: as above
Protocol: as §2

[7] = target: T7, GDF15 mutant S278R (back-of-hand), …; test: as above
Protocol: as §2

[8] = target: T8, GDF15 mutant Q247R (wrist region), …; test: as above
Protocol: as §2

[9] = target: T9, GDF15 mutant L294R (knuckle region), …; test: direct ELISA on coated albumin-fusion GDF15 mutant
Protocol: as §2

[10] = target: T10, GDF15 mutant I285R (knuckle region), …; test: direct ELISA on coated albumin-fusion GDF15 mutant
Protocol: as §2

[11] = target: T11, Cyno His-GDF15: HIS-tagged cyno GDF15; test: Biacore SPR, IgG captured via anti-human Fc, GDF15 in flow
Protocol: (§3) Biacore assay is based on surface plasmon resonance (SPR) and were used to determine the binding affinity of antibodies to GDF15.
as §1

[12] = target: T12, Rat GDF15 HIS: HIS-tagged rat GDF15; test: as above
Protocol: as §3, §1

[13] = target: T13, Human His-GDF15: HIS-tagged human GDF15; test: as above
Protocol: as §3, §1

[14] = target: T1, Human GDF15 native: naturally produced …; test: as above
Protocol: as §3, §1

[15] = target: T14, Mouse His-GDF15: HIS-tagged mouse GDF15; test: as above
Protocol: as §3, §1

[16] = target: T1, Human GDF15 native: naturally produced …; test: Biacore SPR (rounded from Table 2, human GDF15 native); Biacore, not SET
Protocol: as §1

Binder	binding result [2]	binding result [4]	binding result [5]	binding result [6]	binding result [7]	binding result [8]	binding result [9]	binding result [10]	Kd [11]	koff [11]	kon [11]	Kd [12]	koff [12]	kon [12]	Kd [13]	koff [13]	kon [13]	Kd [14]	koff [14]	kon [14]	other results
B1	binds	binds	binds	binds	binds	binds	no binding	no binding	0.12 nM	0.000694 s⁻¹	5.79e+06 M⁻¹ s⁻¹	0.138 nM	0.000365 s⁻¹	2.63e+06 M⁻¹ s⁻¹	0.137 nM	0.000533 s⁻¹	3.9e+06 M⁻¹ s⁻¹	0.0882 nM	0.000512 s⁻¹	5.8e+06 M⁻¹ s⁻¹	Kd [1]: 0.088 nM; Kd [3]: 0.02 nM; Kd [15]: 0.154 nM; koff [15]: 0.000343 s⁻¹; kon [15]: 2.23e+06 M⁻¹ s⁻¹
B2	binds	binds	binds	binds	binds	binds	no binding	no binding	0.0134 nM	0.000278 s⁻¹	2.07e+07 M⁻¹ s⁻¹	0.0232 nM	0.000451 s⁻¹	1.95e+07 M⁻¹ s⁻¹	0.00262 nM	0.000247 s⁻¹	9.42e+07 M⁻¹ s⁻¹	0.0113 nM	0.000374 s⁻¹	3.3e+07 M⁻¹ s⁻¹	Kd [16]: 0.011 nM; Kd [15]: 0.0568 nM; koff [15]: 0.000613 s⁻¹; kon [15]: 1.08e+07 M⁻¹ s⁻¹
